Consider one molecule from US20090286242A1, “MicroRNA Expression Profiling and Uses Thereof” (COLD SPRING HARBOR LABORATORY, priority 2007, published 2009).

One assay relates to miR-205. Kind of assay: Stem-loop qRT-PCR of mature miRNA in Wnt-1-expressing Comma-Dβ cells. The assay is classed as cell-based, mouse. The conditions noted are these: data not shown. On the procedure: 1-4 μg of total RNA from sorted cells was used for small RNA cloning performed as described in Pfeffer et al, 2005 (incorporated by reference). Illumina 1G sequencing and analysis was performed as described Stark et al. 2007 (incorporated by reference). miRNA expression analyses mature miRNAs were quantified using the TaqMan MicroRNA Assays previously described by Chen et al., 2005 (Applied Biosystems, incorporated by reference).
Data was normalized to Actin using SuperScript III SYBR Green One-Step qRT-PCR system (Invitrogen). The experiments were repeated twice and all reactions were run in triplicate.
(Real-time PCR tracks product formation cycle by cycle.)

The next assay deals with Comma-Dβ cells. Kind of assay: ALDEFLUOR / Sca-1 FACS analysis of Comma-Dβ cell compartments. The assay is classed as cell-based, mouse. The conditions noted are these: ectopic expression in Comma-Dβ cells. Background: In flow cytometry, cells or beads pass a laser one at a time.

B1: Wnt-1: Wnt-1 ectopically expressed from an MSCV-hygro vector (Wnt-1MSCV) (protein, UniProt P04426 28-370, looked up)
Proto-oncogene Wnt-1: ANSSGRWWGIVNIASSTNLLTDSKSLQLVLEPSLQLLSRKQRRLIRQNPGILHSVSGGLQSAVRECKWQFRNRRWNCPTAPGPHLFGKIVNRGCRETAFIFAITSAGVTHSVARSCSEGSIESCTCDYRRRGPGGPDWHWGGCSDNIDFGRLFGREFVDSGEKGRDLRFLMNLHNNEAGRTTVFSEMRQECKCHGMSGSCTVRTCWMRLPTLRAVGDVLRDRFDGASRVLYGNRGSNRASRAELLRLEPEDPAHKPPSPHDLVYFEKSPNFCTYSGRLGTAGTAGRACNSSSPALDGCELLCCGRGHRTRTQRVTERCNCTFHWCCHVSCRNCTHTRVLHECL
On to B1, for which, in the assay on miR-205, the “miR-205 level compared to empty vector control cells” value came out at 6 fold. Further, in the assay on Comma-Dβ cells, the “increase in the ALDH bright Sca-1 high population” value is on record as 3.5 fold.
